Measured values: the supplement of paper PMC10126150
± gives the standard deviation of the averaged measurements.

System: ATP
Test: switch fluorescence ratio, 500 uM ATP over buffer (Cy3 cluster intensity, sum of 5 cycles each) (fold (ratio)); higher = stronger signal-on switching upon ATP binding; sequences stand for … in TCGTCGGCAGCGTCAGATGTGTATAAGAGACAGTTTTTTTTTTTTTTTTTTTTTTTTT…TC
Conditions: aptamer strand: ATP DNA aptamer (quencher-CACCTGGGGGAGTATTGCGGAGGAAGG + anchor), 100 nM annealed; ATP concentration: 500 uM
Outline: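 Cy3-labelled switching-strand clusters on a modified Illumina MiSeq flow-cell were annealed to 100 nM quencher-labelled ATP aptamer and imaged first in selection buffer, then after 15 min with 500 uM ATP at 22 °C. NaOH stripping and re-annealing separated each of five buffer/ATP cycles, and clusters outside 100-1000 RFU were excluded. The fluorescence ratio sums target-cycle Cy3 intensity over buffer-cycle Cy3 intensity per cluster and averages it per switch-domain sequence.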
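Also: ATP exposure 15 min at 22 °C before imaging.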

| Sequence | switch fluorescence ratio |
| --- | --- |
| GCGGCATTGG | 1.04 ± 0.053 |
| ATAAGTCCGG | 1.03 ± 0.042 |
| TTGGTTCGAC | 0.962 ± 0.04 |
| ACTATAGTAT | 1 ± 0.057 |
| GGGGCGAAGG | 0.999 ± 0.038 |
| ATTGGAATGC | 1.26 ± 0.047 |
| ACACGGGGGT | 1.01 ± 0.018 |
| ACGGCAAAGG | 1.155 ± 0.0063 |
| TTATTTGGAG | 0.986 ± 0.025 |
| TGCAGGGGCT | 1.15 ± 0.22 |
| GGGGGGGGAA | 1.01 ± 0.063 |
| CTTCTCAGTA | 1.03 ± 0.048 |
| AGGGTTTGGT | 0.982 ± 0.02 |
| GGGTTAATGT | 1.01 ± 0.061 |
| TCATGCGAAA | 1.1 ± 0.013 |
| TTTATGGCTT | 1.01 ± 0.046 |
| AAGGCCTTGA | 0.988 ± 0.049 |
| ATCTGGGGAA | 1.01 ± 0.045 |
| TCATTGTTCG | 0.958 ± 0.0035 |
| CGGGTGTGGG | 1.009 ± 0.0012 |
| TCCCCCCCTT | 1.41 ± 0.58 |
| AAGTGTGTTT | 1 ± 0.031 |
| CGCTATGATG | 0.984 ± 0.028 |
| GTGGTGAGGC | 1.001 ± 0.0055 |
| AACCTTTATA | 1.01 ± 0.012 |

| Sequence | switch fluorescence ratio |
| --- | --- |
| AGCAGAGAAA | 0.982 ± 0.046 |
| CATCAATGTG | 0.997 ± 0.052 |
| CATTTGGGTT | 1.03 ± 0.059 |
| TATGTTGAGG | 1 ± 0.035 |
| GAGGGAGTTG | 0.997 ± 0.017 |
| TTTGCCATAG | 1.02 ± 0.022 |
| TAGGAATTTT | 0.984 ± 0.016 |
| AGTCTGTGCT | 0.97353 ± 0.00097 |
| GTATGTTAGG | 1.0143 ± 0.00055 |
| CATGCACCGG | 0.986 ± 0.05 |
| CCGATGATTT | 1.5 ± 0.56 |
| GGGGGATCCG | 0.983 ± 0.019 |
| CAGTATTCGG | 1 ± 0.015 |
| TAGAAATTAA | 0.977 ± 0.019 |
| AATTGGGGTG | 1.06 ± 0.011 |
| ATTTGCCGAC | 0.975 ± 0.019 |
| AGATTCGTAC | 1.02 ± 0.021 |
| GATACTGATA | 1.032 ± 0.0098 |
| TCTTGCGTCG | 0.976 ± 0.023 |
| AAAATTCCGG | 1.011 ± 0.0011 |
| GGCGTAAGTG | 0.953 ± 0.027 |
| ATGGGGAGGT | 0.968 ± 0.025 |
| TGAGTATTTG | 0.98 ± 0.025 |
| CCATACGTTT | 1.02 ± 0.046 |
| TTTGCTTCCG | 1.1 ± 0.084 |

| Sequence | switch fluorescence ratio |
| --- | --- |
| TAGGGAACGC | 1.02 ± 0.011 |
| CGCCTTGGTT | 1.02 ± 0.013 |
| AAGGGGATTC | 1.07 ± 0.012 |
| TCAATGGGCT | 0.9899 ± 0.0092 |
| GAGTCCACGT | 1 ± 0.034 |
| ATTGATGT | 1.0234 ± 0.00096 |
| TTAAAGCGGA | 1.01 ± 0.021 |
| TGCTTTTGTC | 1.01 ± 0.078 |
| GGGTGGGGTG | 1 ± 0.018 |
| TGTTTGACGT | 1.03 ± 0.014 |
| CAGTGTTGGC | 1 ± 0.016 |
| TTGAGCTAGT | 1 ± 0.032 |
| TAAGGATGGG | 0.961 ± 0.032 |
| AGGCTTTTTC | 0.999 ± 0.024 |
| GTCAAAGGGT | 0.99 ± 0.022 |
| GGGGAATCTA | 0.997 ± 0.022 |
| CTTGGGCCAC | 1 ± 0.032 |
| ACAGAAGGGG | 1.02 ± 0.012 |
| TCCGTCAATG | 1.63 ± 0.07 |
| GAACATGTAT | 0.987 ± 0.026 |
| TGGATCTGCC | 1.036 ± 0.0056 |
| CTAGAGGGCG | 1.014 ± 0.0084 |
| TTACAGTTCG | 1.013 ± 0.0082 |
| GAGTGGGTTG | 0.982 ± 0.0092 |
| ACAGCTGATG | 0.977 ± 0.059 |

| Sequence | switch fluorescence ratio |
| --- | --- |
| CAATCCATTG | 0.994 ± 0.024 |
| ATTCGTATGT | 1.03 ± 0.03 |
| AACAATGAAG | 1.03 ± 0.022 |
| TACCGGATGG | 1.03 ± 0.021 |
| CGCTGTGGGA | 0.973 ± 0.053 |
| AGCATGATGC | 0.991 ± 0.037 |
| AGCATAAGGC | 1.02 ± 0.019 |
| AATAGGAGGC | 1.05 ± 0.053 |
| CCATCTGCGC | 1.82 ± 0.074 |
| CTATTCGGCC | 0.986 ± 0.02 |
| TTTAGTGTGG | 1.02 ± 0.044 |
| ATGTTAGGGA | 1.034 ± 0.0052 |
| TTGCGAGGGG | 0.9778 ± 0.006 |
| CAAGTTCTGC | 0.97 ± 0.053 |
| TTTAGTAGGG | 1 ± 0.027 |
| CCTTGCCGTT | 0.99 ± 0.017 |
| ATTAATTTTA | 1.02 ± 0.041 |
| CCAGGTCTAT | 1.08 ± 0.018 |
| TTTTTGGGTC | 1.03 ± 0.12 |
| AATTCCTATG | 1.04 ± 0.05 |
| AAAGACGGCA | 1.53 ± 0.02 |
| CGTTTATAGT | 1.02 ± 0.039 |
| TGAGTAGAGG | 1 ± 0.02 |
| TTTTTGTCCG | 1.02 ± 0.042 |
| TTGAAGGTCA | 1.02 ± 0.015 |

| Sequence | switch fluorescence ratio |
| --- | --- |
| ATCGATGGGA | 0.987 ± 0.07 |
| GGATCCAGTA | 1.02 ± 0.045 |
| GTTGCATTCA | 1.01 ± 0.033 |
| ACATCGGGGG | 1.013 ± 0.0089 |
| ACATTTAGCT | 1.01 ± 0.03 |
| GTCGTTGCCT | 0.99139 ± 0.00027 |
| TGGGGTGTCT | 0.993 ± 0.039 |
| AAGACGTGGT | 0.992 ± 0.008 |
| TTAGGCGTGG | 1.017 ± 0.006 |
| CAATGGCGTA | 1.013 ± 0.00084 |
| TAGTGTGTAT | 0.9516 ± 0.0088 |
| ACATTGATAT | 1.01 ± 0.011 |
| GCTTAGTATA | 1.01 ± 0.019 |
| CGTAAAGGAG | 0.992 ± 0.052 |
| ATTTCACTCG | 1.01 ± 0.036 |
| CGGCTTATAT | 1.06 ± 0.041 |
| TTGAAGAAGT | 0.9724 ± 0.0095 |
| GTTCTCATTT | 0.995 ± 0.025 |
| CCCCGAGGAT | 1.14 ± 0.022 |
| ATGTTTGGGG | 1.03 ± 0.084 |
| TATTTAATAG | 1.004 ± 0.0028 |
| GATGGATTCG | 1.01 ± 0.026 |
| GTAAAAATTG | 0.986 ± 0.028 |
| TGCACGCAGC | 1.25 ± 0.09 |
| GGGGGGTGGT | 0.978 ± 0.025 |

| Sequence | switch fluorescence ratio |
| --- | --- |
| ATACTATTGT | 1.029 ± 0.0037 |
| TCATATTTAA | 1.015 ± 0.0043 |
| TAGCTGAGGA | 1.01 ± 0.032 |
| TTCTTATAGA | 1.0069 ± 1.4e-05 |
| AGGGGGCTGG | 0.977 ± 0.018 |
| CACGGGGGAG | 1.005 ± 0.0096 |
| CTGGGGGACG | 1.02 ± 0.016 |
| ACAACAGGGG | 2.91 ± 0.65 |
| TAAGATTTTC | 0.973 ± 0.046 |
| GTGTAACGTT | 1 ± 0.042 |
| GATGGAGTTA | 1.01 ± 0.047 |
| ACTGGCATTG | 1.02 ± 0.044 |
| CGGGTGGGG | 1.03 ± 0.071 |
| TTTTGTGAGC | 0.996 ± 0.021 |
| ATGTTCAAGA | 1.01 ± 0.015 |
| TGCTTCGACG | 0.9996 ± 0.0012 |
| TAATCTGCTG | 1.01 ± 0.02 |
| AGGACGTAGC | 1.09 ± 0.018 |
| GCTGTTCACG | 1.01 ± 0.014 |
| GTGCCAACGT | 0.981 ± 0.035 |
| TTAAAGTAGG | 0.992 ± 0.015 |
| GGGGTTAGTG | 0.971 ± 0.034 |
| AAGGGATTAG | 1.01 ± 0.037 |
| CTCTTCTCTT | 0.9657 ± 0.0088 |
| CATTTAATTC | 1.04 ± 0.014 |

| Sequence | switch fluorescence ratio |
| --- | --- |
| CCGCTTAGAT | 2.34 ± 0.23 |
| GAGTCCATTA | 0.981 ± 0.015 |
| GGGGAGAGGA | 0.987 ± 0.037 |
| AAGGTCACGC | 1.01 ± 0.024 |
| GATCGGGGAA | 1.01 ± 0.02 |
| CTGTATGAGT | 0.9879 ± 0.0037 |
| AGGTCGGTGG | 1.07 ± 0.11 |
| AGTATTTTGC | 0.969 ± 0.085 |
| GGCCGTGTGG | 0.998 ± 0.023 |
| GCCAGAGCGA | 1.27 ± 0.0013 |
| TTTCATTGGG | 1.01 ± 0.032 |
| CGTGTAGTGG | 0.984 ± 0.018 |
| TGGAGATAGG | 0.994 ± 0.016 |
| CCAAATCGGA | 1 ± 0.022 |
| TTATCGAGGC | 1.06 ± 0.059 |
| GGTTAATTAA | 1.03 ± 0.019 |
| CTGAGGGGGT | 0.991 ± 0.066 |
| CCATACGTTG | 1.037 ± 0.0051 |
| ACGCGTGAAG | 1.03 ± 0.021 |
| TTGGAATATT | 0.9812 ± 0.0027 |
| AATCGTCTGG | 0.993 ± 0.019 |
| ATTGCTGGGT | 0.985 ± 0.033 |
| GGTGGATCTT | 1.03 ± 0.015 |
| ATGGGTTTGT | 1.02 ± 0.021 |
| GCAAAAGGAG | 1 ± 0.059 |

| Sequence | switch fluorescence ratio |
| --- | --- |
| TGAAGTTGGG | 1.11 ± 0.15 |
| AGGGAAAGCT | 1.12 ± 0.2 |
| CGAAGTACCG | 1.08 ± 0.011 |
| ATAGGGCGGC | 1.012 ± 0.0038 |
| CGCGAGGGTT | 1.008 ± 0.007 |
| AGTTTAACGC | 0.9911 ± 0.0059 |
| TTATTAGTCG | 1.017 ± 0.0064 |
| ATTCCATTTG | 1.03 ± 0.05 |
| TTTGAGCGTT | 1.01 ± 0.04 |
| CGGGCAGCGT | 0.986 ± 0.0076 |
| TAGGGCATAT | 1.1 ± 0.073 |
| TCGTTTAGGT | 0.977 ± 0.026 |
| ATATAGTCCT | 0.9714 ± 0.0023 |
| AAAACCGTCG | 1.1 ± 0.023 |
| TACAGTTACC | 1.31 ± 0.11 |
| TGTTAGTGGG | 1.02 ± 0.032 |
| TAAGTGGTT | 0.994 ± 0.011 |
| ACATGGTTAT | 0.994 ± 0.018 |
| CATGGGTTAT | 0.981 ± 0.05 |
| TACTCGGTTT | 0.98 ± 0.014 |
| TCGGTATTGG | 1.09 ± 0.1 |
| TGAACGGGGA | 1.02 ± 0.031 |
| GCCTTTAGGG | 1 ± 0.024 |
| GAACTAGCGC | 1 ± 0.019 |
| ATGGTCTCTT | 0.987 ± 0.013 |
